From US20240293512A1 (HANMI PHARM, published 2024)
Bridge positions count the residues as written; N and C are the ends. Square brackets hold non-standard residues; d marks the D form. Ends that are not written are not given here. * marks the point of attachment. Acetyl(2-(4-imidazolyl)) = O=C(Cc1c[nH]cn1)*; Aib = CC(C)(N)C(=O)O

What follows are binders tested against human GLP-1 receptor (human, UniProt P43220 24-463) (assay: cell-based or functional assay).

Row | Binder | In vitro activity compared with native peptide (%) vs GLP-1 (cAMP EC50)
1 | H[Aib]QGTFTSDYSKYLDEKACKDFVQWLLDGGPSSGAPPPS (bridge 16-20) [triple agonist of SEQ ID NO: 32] | 151%
2 | H[Aib]QGTFTSDYSKYLDERACQDFVQWLLDQGGPSSGAPPPS [triple agonist of SEQ ID NO: 27] | 83.1%
3 | H[Aib]QGTFTSDCSKYLDERAAQDFVQWLLDGGPSSGAPPPS [triple agonist of SEQ ID NO: 25] | 82.6%
4 | [Acetyl(2-(4-imidazolyl))]GQGTFTSDLSIQYDSEHQRDFIEWLKDTGPSSGAPPPSHG [triple agonist of SEQ ID NO: 19] | < 0.1%
5 | Y[Aib]QGTFTSDYSKCLDEKRAKEFVQWLLDHHPSSGQPPPS (bridge 16-20) [triple agonist of SEQ ID NO: 22] | 20.1%
6 | [Acetyl(2-(4-imidazolyl))]GQGTFTSDLSKQMDSEAQQLFIEWLKNGGPSSGAPPPSHG [triple agonist of SEQ ID NO: 16] | 2.1%
7 | H[Aib]QGTFTSDYSKYLDEKAAKEFVQWLLNTC (bridge 16-20) [triple agonist of SEQ ID NO: 29] | 38.5%
8 | Y[Aib]QGTFTSDYSKYLDECRAKEFVQWLLDHHPSSGQPPPS (bridge 16-20) [triple agonist of SEQ ID NO: 21] | 17.8%
9 | [Acetyl(2-(4-imidazolyl))]GQGTFTSDLSIQYEEEAQQDFVEWLKDTGPSSGAPPPSHG [triple agonist of SEQ ID NO: 20] | < 0.1%
10 | H[Aib]QGTFTSDCSKYLDSRAAQDFVQWLLDGGPSSGAPPPS [triple agonist of SEQ ID NO: 26] | 64.5%
11 | H[Aib]QGTFTSDVSSYLLGQAAKQFIAWLVKGGGPSSGAPPPSC [triple agonist of SEQ ID NO: 3] | 1.8%
12 | H[Aib]QGTFTSDYSKYLDEKRAQEFVCWLLAQKGKKNDWKHNIT [triple agonist of SEQ ID NO: 28] | 17.2%
13 | [Acetyl(2-(4-imidazolyl))]GQGTFTSDLSKQMDSERAREFIEWLKNTGPSSGAPPPSHG [triple agonist of SEQ ID NO: 18] | < 0.1%
14 | H[Aib]QGTFTSDYSIAMDEIHQKDFVNWLLAQKC (bridge 16-20) [triple agonist of SEQ ID NO: 33] | 24.5%
15 | [Acetyl(2-(4-imidazolyl))]GQGTFTSDYSIQLDEIAVRDFVEWLKNGGPSSGAPPPSHG [triple agonist of SEQ ID NO: 14] | 28%
16 | H[Aib]QGTFTSDYSKYLDEKAQKEFVQWLLDTC (bridge 16-20) [triple agonist of SEQ ID NO: 30] | 142%
17 | H[Aib]QGTFTSDYSKYLDEKACKEFVQWLLAQ (bridge 16-20) [triple agonist of SEQ ID NO: 31] | 135%
18 | Y[Aib]QGTFTSDYSKYLDECRAKEFVQWLKNGGPSSGAPPPS (bridge 16-20) [triple agonist of SEQ ID NO: 24] | 41.2%
19 | Y[Aib]QGTFTSDYSKYLDECRAKEFVQWLLAQKGKKNDWKHNIT (bridge 16-20) [triple agonist of SEQ ID NO: 23] | 4.01%
20 | [Acetyl(2-(4-imidazolyl))]GQGTFTSDLSKQMDEERAREFIEWLLAQKPSSGAPPPSHG [triple agonist of SEQ ID NO: 17] | 0.2%
21 | [Acetyl(2-(4-imidazolyl))]GEGTFISDYSIQLDEIAVQDFVEWLLAQKPSSGAPPPSHG [triple agonist of SEQ ID NO: 13] | < 0.1%
22 | H[Aib]QGTFTSDVSSYLDGQAQKEFIAWLVKGC [triple agonist of SEQ ID NO: 2] | 5.9%

These binders were tested against human GCG receptor (human, UniProt P47871 26-477) (assay: cell-based or functional assay).
Sequence of human GCG receptor (P47871 26-477): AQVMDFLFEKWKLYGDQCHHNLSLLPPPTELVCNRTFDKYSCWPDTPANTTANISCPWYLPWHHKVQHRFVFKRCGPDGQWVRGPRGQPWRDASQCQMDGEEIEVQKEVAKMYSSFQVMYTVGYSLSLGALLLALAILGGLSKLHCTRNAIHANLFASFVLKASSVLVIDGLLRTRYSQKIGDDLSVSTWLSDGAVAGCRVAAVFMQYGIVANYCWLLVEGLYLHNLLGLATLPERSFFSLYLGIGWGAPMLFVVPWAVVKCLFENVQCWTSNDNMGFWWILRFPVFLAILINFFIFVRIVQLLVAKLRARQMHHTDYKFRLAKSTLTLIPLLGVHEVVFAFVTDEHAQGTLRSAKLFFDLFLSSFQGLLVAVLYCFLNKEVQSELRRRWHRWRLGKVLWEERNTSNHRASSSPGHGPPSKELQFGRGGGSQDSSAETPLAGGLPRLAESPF

Row | Binder | In vitro activity compared with native peptide (%) vs Glucagon (cAMP EC50)
23 | H[Aib]QGTFTSDYSKYLDEKACKDFVQWLLDGGPSSGAPPPS (bridge 16-20) [triple agonist of SEQ ID NO: 32] | 1.7%
24 | H[Aib]QGTFTSDYSKYLDERACQDFVQWLLDQGGPSSGAPPPS [triple agonist of SEQ ID NO: 27] | 0.8%
25 | H[Aib]QGTFTSDCSKYLDERAAQDFVQWLLDGGPSSGAPPPS [triple agonist of SEQ ID NO: 25] | 0.1%
26 | [Acetyl(2-(4-imidazolyl))]GQGTFTSDLSIQYDSEHQRDFIEWLKDTGPSSGAPPPSHG [triple agonist of SEQ ID NO: 19] | < 0.1%
27 | Y[Aib]QGTFTSDYSKCLDEKRAKEFVQWLLDHHPSSGQPPPS (bridge 16-20) [triple agonist of SEQ ID NO: 22] | 140%
28 | [Acetyl(2-(4-imidazolyl))]GQGTFTSDLSKQMDSEAQQLFIEWLKNGGPSSGAPPPSHG [triple agonist of SEQ ID NO: 16] | < 0.1%
29 | H[Aib]QGTFTSDYSKYLDEKAAKEFVQWLLNTC (bridge 16-20) [triple agonist of SEQ ID NO: 29] | 6%
30 | Y[Aib]QGTFTSDYSKYLDECRAKEFVQWLLDHHPSSGQPPPS (bridge 16-20) [triple agonist of SEQ ID NO: 21] | 267%
31 | [Acetyl(2-(4-imidazolyl))]GQGTFTSDLSIQYEEEAQQDFVEWLKDTGPSSGAPPPSHG [triple agonist of SEQ ID NO: 20] | < 0.1%
32 | H[Aib]QGTFTSDCSKYLDSRAAQDFVQWLLDGGPSSGAPPPS [triple agonist of SEQ ID NO: 26] | 0.2%
33 | H[Aib]QGTFTSDVSSYLLGQAAKQFIAWLVKGGGPSSGAPPPSC [triple agonist of SEQ ID NO: 3] | < 0.1%
34 | H[Aib]QGTFTSDYSKYLDEKRAQEFVCWLLAQKGKKNDWKHNIT [triple agonist of SEQ ID NO: 28] | 1.6%
35 | [Acetyl(2-(4-imidazolyl))]GQGTFTSDLSKQMDSERAREFIEWLKNTGPSSGAPPPSHG [triple agonist of SEQ ID NO: 18] | < 0.1%
36 | H[Aib]QGTFTSDYSIAMDEIHQKDFVNWLLAQKC (bridge 16-20) [triple agonist of SEQ ID NO: 33] | < 0.1%
37 | [Acetyl(2-(4-imidazolyl))]GQGTFTSDYSIQLDEIAVRDFVEWLKNGGPSSGAPPPSHG [triple agonist of SEQ ID NO: 14] | < 0.1%
38 | H[Aib]QGTFTSDYSKYLDEKAQKEFVQWLLDTC (bridge 16-20) [triple agonist of SEQ ID NO: 30] | 0.7%
39 | H[Aib]QGTFTSDYSKYLDEKACKEFVQWLLAQ (bridge 16-20) [triple agonist of SEQ ID NO: 31] | 2.2%
40 | Y[Aib]QGTFTSDYSKYLDECRAKEFVQWLKNGGPSSGAPPPS (bridge 16-20) [triple agonist of SEQ ID NO: 24] | 9.3%
41 | Y[Aib]QGTFTSDYSKYLDECRAKEFVQWLLAQKGKKNDWKHNIT (bridge 16-20) [triple agonist of SEQ ID NO: 23] | 9.3%
42 | [Acetyl(2-(4-imidazolyl))]GQGTFTSDLSKQMDEERAREFIEWLLAQKPSSGAPPPSHG [triple agonist of SEQ ID NO: 17] | < 0.1%
43 | [Acetyl(2-(4-imidazolyl))]GEGTFISDYSIQLDEIAVQDFVEWLLAQKPSSGAPPPSHG [triple agonist of SEQ ID NO: 13] | < 0.1%
44 | H[Aib]QGTFTSDVSSYLDGQAQKEFIAWLVKGC [triple agonist of SEQ ID NO: 2] | < 0.1%

The binders below were run against T1, human GIP receptor (human, UniProt P48546 22-466) (assay: cell-based or functional assay).
T1 sequence (looked up): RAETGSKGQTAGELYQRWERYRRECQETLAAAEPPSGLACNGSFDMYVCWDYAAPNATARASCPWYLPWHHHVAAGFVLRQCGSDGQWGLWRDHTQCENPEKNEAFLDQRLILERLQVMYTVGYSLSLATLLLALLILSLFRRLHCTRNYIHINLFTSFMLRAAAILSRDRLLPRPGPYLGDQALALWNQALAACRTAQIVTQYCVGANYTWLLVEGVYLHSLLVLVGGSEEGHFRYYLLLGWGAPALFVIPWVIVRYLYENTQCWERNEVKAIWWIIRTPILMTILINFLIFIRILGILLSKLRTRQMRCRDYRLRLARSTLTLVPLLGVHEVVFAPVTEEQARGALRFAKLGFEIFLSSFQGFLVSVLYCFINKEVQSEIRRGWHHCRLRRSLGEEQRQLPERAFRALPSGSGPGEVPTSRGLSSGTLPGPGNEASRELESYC

Row | Binder | In vitro activity compared with native peptide (%) vs GIP (cAMP EC50)
45 | H[Aib]QGTFTSDYSKYLDEKACKDFVQWLLDGGPSSGAPPPS (bridge 16-20) [triple agonist of SEQ ID NO: 32] | 8.8%
46 | H[Aib]QGTFTSDYSKYLDERACQDFVQWLLDQGGPSSGAPPPS [triple agonist of SEQ ID NO: 27] | 0.9%
47 | H[Aib]QGTFTSDCSKYLDERAAQDFVQWLLDGGPSSGAPPPS [triple agonist of SEQ ID NO: 25] | < 0.1%
48 | [Acetyl(2-(4-imidazolyl))]GQGTFTSDLSIQYDSEHQRDFIEWLKDTGPSSGAPPPSHG [triple agonist of SEQ ID NO: 19] | < 0.1%
49 | Y[Aib]QGTFTSDYSKCLDEKRAKEFVQWLLDHHPSSGQPPPS (bridge 16-20) [triple agonist of SEQ ID NO: 22] | 59.7%
50 | [Acetyl(2-(4-imidazolyl))]GQGTFTSDLSKQMDSEAQQLFIEWLKNGGPSSGAPPPSHG [triple agonist of SEQ ID NO: 16] | < 0.1%
51 | H[Aib]QGTFTSDYSKYLDEKAAKEFVQWLLNTC (bridge 16-20) [triple agonist of SEQ ID NO: 29] | < 0.1%
52 | Y[Aib]QGTFTSDYSKYLDECRAKEFVQWLLDHHPSSGQPPPS (bridge 16-20) [triple agonist of SEQ ID NO: 21] | 22.7%
53 | [Acetyl(2-(4-imidazolyl))]GQGTFTSDLSIQYEEEAQQDFVEWLKDTGPSSGAPPPSHG [triple agonist of SEQ ID NO: 20] | < 0.1%
54 | H[Aib]QGTFTSDCSKYLDSRAAQDFVQWLLDGGPSSGAPPPS [triple agonist of SEQ ID NO: 26] | < 0.1%
55 | H[Aib]QGTFTSDVSSYLLGQAAKQFIAWLVKGGGPSSGAPPPSC [triple agonist of SEQ ID NO: 3] | < 0.1%
56 | H[Aib]QGTFTSDYSKYLDEKRAQEFVCWLLAQKGKKNDWKHNIT [triple agonist of SEQ ID NO: 28] | < 0.1%
57 | [Acetyl(2-(4-imidazolyl))]GQGTFTSDLSKQMDSERAREFIEWLKNTGPSSGAPPPSHG [triple agonist of SEQ ID NO: 18] | < 0.1%
58 | H[Aib]QGTFTSDYSIAMDEIHQKDFVNWLLAQKC (bridge 16-20) [triple agonist of SEQ ID NO: 33] | 10.4%
59 | [Acetyl(2-(4-imidazolyl))]GQGTFTSDYSIQLDEIAVRDFVEWLKNGGPSSGAPPPSHG [triple agonist of SEQ ID NO: 14] | < 0.1%
60 | H[Aib]QGTFTSDYSKYLDEKAQKEFVQWLLDTC (bridge 16-20) [triple agonist of SEQ ID NO: 30] | 0.8%
61 | H[Aib]QGTFTSDYSKYLDEKACKEFVQWLLAQ (bridge 16-20) [triple agonist of SEQ ID NO: 31] | 2.4%
62 | Y[Aib]QGTFTSDYSKYLDECRAKEFVQWLKNGGPSSGAPPPS (bridge 16-20) [triple agonist of SEQ ID NO: 24] | < 0.1%
63 | Y[Aib]QGTFTSDYSKYLDECRAKEFVQWLLAQKGKKNDWKHNIT (bridge 16-20) [triple agonist of SEQ ID NO: 23] | < 0.1%
64 | [Acetyl(2-(4-imidazolyl))]GQGTFTSDLSKQMDEERAREFIEWLLAQKPSSGAPPPSHG [triple agonist of SEQ ID NO: 17] | < 0.1%
65 | [Acetyl(2-(4-imidazolyl))]GEGTFISDYSIQLDEIAVQDFVEWLLAQKPSSGAPPPSHG [triple agonist of SEQ ID NO: 13] | < 0.1%
66 | H[Aib]QGTFTSDVSSYLDGQAQKEFIAWLVKGC [triple agonist of SEQ ID NO: 2] | < 0.1%
